According to US12122830 (ABL BIO, dated 2024):

How the values were obtained:
[1] = target: T1, recombinant mouse ROR1 protein (Acrobiosystems, RO1-M5221) (mouse, UniProt Q9Z139 30-406); assay: ELISA, recombinant mouse ROR1 protein coated at 1 µg/ml, IgG titrated, HRP anti-Fab detection
T1 construct: extracellular domain; Bought; also called mouse ROR1 antigen
Description: The anti-ROR1 antibody-antigen binding affinity was estimated by using an ELISA-based solution binding test. Specifically, a 96-well microtiter plate (Nunc-Immuno Plates, NUNC) was coated with the ROR1 protein at a concentration of 1 µg/ml in a PBS solution as described below at 4° C. for 16 hours, and non-specific binding sites were blocked with 3% BSA (bovine serum albumin) for 2 hours. For this, as the ROR1 protein, in case of human ROR1, ROR1-Fc of Example 1 or recombinant ROR1-His (Sino Biological, 13968-H08H) was used. The ROR1-His used for ELISA was a protein of sino biological company (13968-H08H) as described in the above sentence, and ROR1-His of Example 1 or recombinant mouse ROR1 protein was used (Acrobiosystems, RO1-M5221-100 µg).
Then, after adding the anti-ROR1 antibody prepared in Example 3 at the concentration described in FIG. 2 into the microtiter plate on a 96-well microtiter plate, the binding capacity was analyzed with ELISA as follows. Specifically, after constant temperature treatment for 2 hours, the plate was washed with PBS comprising 0.05% tween 20 5 times, and then a HRP-conjugated Fab multiclonal antibody reagent (Pierce, 31414) was diluted at 1:10,000 ratio, and was put into the washed microtiter plate, and it was incubated at 37° C. for 1 hour, and the ROR1 antibody bound to the plate was detected. After reaction, it was color-developed by using TMB (Tetramethylbenzidine, Sigma, T0440). The enzymatic reaction was stopped by 0.5 mol/L of sulfuric acid, and the absorbances at 450 nm and 650 nm were measured by using a micro plate reader device (molecular device) (450 nm-650 nm).

[2] = target: T2, human ROR1 expressed on the cell surface (human, UniProt Q01973 30-937); assay: flow cytometry on SNU-1750 cells (gastric cancer), C2E3 IgG at 10 µg/mL, MFI of anti-ROR1 / MFI of 2nd Ab
T2 construct: whole, on cells; On JeKo-1 and Mino cells and other cancer cell lines (endogenous) and on transfected CHO and MC38 cells; also called cell surface-expressed ROR1; CHO-human ROR1
T2 sequence (Q01973 30-937): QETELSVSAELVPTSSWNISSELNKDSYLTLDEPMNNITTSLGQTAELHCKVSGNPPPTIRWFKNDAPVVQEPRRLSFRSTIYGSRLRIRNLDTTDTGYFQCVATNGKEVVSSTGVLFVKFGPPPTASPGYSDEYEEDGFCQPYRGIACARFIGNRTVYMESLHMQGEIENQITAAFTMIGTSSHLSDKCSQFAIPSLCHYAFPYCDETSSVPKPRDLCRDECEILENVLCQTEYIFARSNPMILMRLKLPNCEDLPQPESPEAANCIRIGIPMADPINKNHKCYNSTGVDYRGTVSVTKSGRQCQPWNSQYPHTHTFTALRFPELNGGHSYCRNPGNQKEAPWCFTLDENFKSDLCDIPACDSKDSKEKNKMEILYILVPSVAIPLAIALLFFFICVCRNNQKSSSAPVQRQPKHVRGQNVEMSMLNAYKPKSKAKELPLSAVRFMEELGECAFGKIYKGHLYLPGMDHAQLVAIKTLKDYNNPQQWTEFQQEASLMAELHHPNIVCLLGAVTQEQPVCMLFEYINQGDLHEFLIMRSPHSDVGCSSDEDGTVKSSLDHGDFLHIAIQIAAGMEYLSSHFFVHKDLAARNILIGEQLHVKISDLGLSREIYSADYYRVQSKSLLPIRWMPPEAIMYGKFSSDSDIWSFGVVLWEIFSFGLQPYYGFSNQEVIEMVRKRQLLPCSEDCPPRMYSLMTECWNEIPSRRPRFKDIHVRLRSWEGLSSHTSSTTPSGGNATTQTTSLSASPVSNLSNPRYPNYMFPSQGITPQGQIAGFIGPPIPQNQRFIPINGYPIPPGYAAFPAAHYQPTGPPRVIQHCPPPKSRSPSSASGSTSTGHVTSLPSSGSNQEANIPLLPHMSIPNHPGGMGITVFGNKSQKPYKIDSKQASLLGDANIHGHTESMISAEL
Description: (§1) For the cell lines, the binding to ROR1 was analyzed with FACS (FACSCalibur, BD Biosciences) by using the anti-ROR1 antibody of the present invention.
(§2) Specifically, after disassociating each cell line and washing in PBS, the number of cells was counted and set as 2 ×10^5 cells/200 µl PBS, and then the clone C2E3 among ROR1 monoclonal antibodies prepared in Example 3 was treated in 10 µg/mL, and it was reacted at 4° C. for 1 hour. After reaction, cells were washed in PBS, and then the FITC-labeled constant region (Fc)-specific antibody (Goat anti-human IgG FITC conjugate, Fc specific, Sigma, F9512, concentration: 2.0 mg/ml) was suspended in 2 µl/1 ×10^5 cells/200 µl PBS, and it was reacted at 4° C. for 1 hour. After reaction, cells were washed in PBS, it was analyzed using a FACSCalibur device. The negative control group was treated only with the FITC-labeled constant region (Fc)-specific antibody. To compare the expression degrees of ROR1 among the cancer cell lines, the value of the result for the peak shift in the experimental group treated with the ROR1 monoclonal antibody (C2E3) of the present invention was divided by the result for the peak shift in the control group (Mean Fluorescence Intensity Ratio MFI Ratio: MFI of anti-ROR1/MFI of 2nd Ab).

[3] = target: T2, human ROR1 expressed on the cell surface; assay: flow cytometry on DLD-1 cells (colon cancer), C2E3 IgG at 10 µg/mL, MFI of anti-ROR1 / MFI of 2nd Ab
Description: as §1, §2

[4] = target: T2, human ROR1 expressed on the cell surface; assay: flow cytometry on Jurkat cells (T cell leukemia), C2E3 IgG at 10 µg/mL, MFI of anti-ROR1 / MFI of 2nd Ab
Description: as §1, §2

[5] = target: T3, mouse ROR1 expressed on the cell surface (CHO-mouse ROR1) (mouse, UniProt Q9Z139 30-937); assay: flow cytometry on CHO cells transiently overexpressing mouse ROR1, FITC anti-human Fc detection, MFI ratio to 2nd Ab
T3 construct: whole, on cells; Temporarily transfected CHO cells
T3 sequence (Q9Z139 30-937): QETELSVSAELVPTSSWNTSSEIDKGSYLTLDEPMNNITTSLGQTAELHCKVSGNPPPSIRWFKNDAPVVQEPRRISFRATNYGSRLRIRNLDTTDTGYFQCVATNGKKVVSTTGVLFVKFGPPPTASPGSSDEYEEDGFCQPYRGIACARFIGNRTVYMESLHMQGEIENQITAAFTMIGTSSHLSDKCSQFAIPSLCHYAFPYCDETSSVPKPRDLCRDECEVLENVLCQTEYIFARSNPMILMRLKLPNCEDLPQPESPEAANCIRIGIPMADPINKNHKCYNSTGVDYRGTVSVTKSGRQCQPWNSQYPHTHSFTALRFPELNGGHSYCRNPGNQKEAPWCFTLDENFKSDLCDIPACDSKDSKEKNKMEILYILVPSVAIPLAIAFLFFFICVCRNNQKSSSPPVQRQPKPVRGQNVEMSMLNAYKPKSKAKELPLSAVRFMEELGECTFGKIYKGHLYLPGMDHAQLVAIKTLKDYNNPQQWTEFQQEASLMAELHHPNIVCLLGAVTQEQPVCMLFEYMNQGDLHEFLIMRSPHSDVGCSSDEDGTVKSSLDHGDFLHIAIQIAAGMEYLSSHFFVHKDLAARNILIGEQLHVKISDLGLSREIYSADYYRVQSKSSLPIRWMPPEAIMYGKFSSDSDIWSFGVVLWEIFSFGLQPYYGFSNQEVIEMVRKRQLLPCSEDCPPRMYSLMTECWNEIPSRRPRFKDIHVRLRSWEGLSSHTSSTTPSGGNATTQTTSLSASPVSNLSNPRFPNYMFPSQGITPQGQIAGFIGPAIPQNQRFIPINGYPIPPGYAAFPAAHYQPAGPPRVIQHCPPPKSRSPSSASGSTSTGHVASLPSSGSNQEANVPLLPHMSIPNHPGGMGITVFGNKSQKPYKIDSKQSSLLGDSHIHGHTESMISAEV
Description: For this experiment, the degree of binding of the anti-ROR1 antibody and ROR1 was measured by using FACSCalibur (BD Biosciences) device with the cell lines as follows, the cell lines artificially overexpressing the ROR1 protein by transfecting an ROR1 gene temporarily (CHO-human ROR1, CHO-human ROR2, CHO-mouse ROR1) or stably (MC38-human ROR1) (FIG. 5 and FIG. 7, respectively) or the cell lines expressing ROR1 (JeKo-1, Mino) (FIG. 6) or a cell line not expressing ROR1 (MCF7) (FIG. 6). […] JeKo-1, Mino, CHO-human ROR1, CHO-mouse ROR1 and MC38-human ROR1 are all cell lines expressing human ROR1 or mouse ROR1.
Specifically, after disassociating each cell line and washing in PBS, the number of cells was counted and set as 2×10^5 cells/200 µl PBS, and then each ROR1 monoclonal antibody in Example 3 was prepared in 10 µg/mL or as 5 fold-diluted from 10 µg/mL, and was reacted at 4° C. for 1 hour. After reaction, cells were washed in PBS and then the FITC-labeled constant region (Fc)-specific antibody (Goat anti-human IgG FITC conjugate, Fc specific, Sigma, F9512, concentration: 2.0 mg/ml) was suspended in 2 µl/1×10^5 cells/200 µl PBS, and it was reacted at 4° C. for 1 hours. The confirmation of expression degree of human ROR1, human ROR2 and mouse ROR1 that were temporarily overexpressed was analyzed by using a commercially available antibody for FACS analysis (anti-ROR1: R&D Systems, FAB2000G, anti-ROR2: R&D, FAB20641P). After reaction, cells were washed in PBS and decoded by using a FACSCalibur device. The negative control group (2nd Ab) was treated only with the FITC-labeled constant region (Fc)-specific antibody. The result for the peak shift in the experimental group treated with each ROR1 monoclonal antibody was compared to the result for the shift in the control group (Mean Fluorescence Intensity Ratio, MFI Ratio: MFI of anti-ROR1/MFI of 2nd Ab).

[6] = target: T2, human ROR1 expressed on the cell surface; assay: flow cytometry on H1437 cells (lung cancer), C2E3 IgG at 10 µg/mL, MFI of anti-ROR1 / MFI of 2nd Ab
Description: as §1, §2

T1 sequence (Q9Z139 30-406): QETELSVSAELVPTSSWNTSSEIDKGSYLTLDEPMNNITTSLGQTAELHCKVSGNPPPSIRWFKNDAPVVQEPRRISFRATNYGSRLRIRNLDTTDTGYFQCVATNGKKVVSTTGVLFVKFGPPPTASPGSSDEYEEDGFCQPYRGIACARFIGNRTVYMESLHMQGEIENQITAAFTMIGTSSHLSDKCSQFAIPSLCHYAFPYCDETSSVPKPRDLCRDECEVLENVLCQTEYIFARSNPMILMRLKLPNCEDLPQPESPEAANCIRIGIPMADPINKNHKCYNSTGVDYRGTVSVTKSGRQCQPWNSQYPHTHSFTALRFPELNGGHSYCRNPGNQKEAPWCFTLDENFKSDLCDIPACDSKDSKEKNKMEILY

B1: C2E3 anti-ROR1 IgG antibody (antibody, V domains shown)
VH: EVQLLESGGGLVQPGGSLRLSCAASGFTFSNYAMSWVRQAPGKGLEWVSSISHNSGSTYYADSVKGRFTISRDNSKNTLYLQMNSLRAEDTAVYYCAKFISARKSLGRSYSNGMDVWGQGTLVTVSS
VL: QSVLTQPPSASGTPGQRVTISCTGSSSNIGSNDVTWYQQLPGTAPKLLIYADSKRPSGVPDRFSGSKSGTSASLAISGLRSEDEADYYCGTWDYSLSGYVFGGGTKLTVLG
binding result [1]: binds
Mean Fold Ratio [2]: 3.9
Mean Fold Ratio [3]: 17.6
Mean Fold Ratio [4]: 1.7
binding result [5]: binds
Mean Fold Ratio [6]: 4.1
